These results are taken from patent EP4223782A1 (dated 2023).

For assay [1], the target named is TGFβR2(-1) peptide … presented on HLA-DRA/HLA-DRB1*04:01 (human). Kind of assay: cell-based or functional assay.
Assay [2] has as its target T1, TGFβR2(-1) frameshift variant (deletion of one adenine in the 10-adenine microsatellite) peptide on … (human).
T1 peptide: VALMSAMTTSSSQKN
Description: IFNγ ELISA after 16 h; transduced human CD4+ T cells with BSM cells pulsed with decreasing amounts of peptide; lower bound of the printed range; full-length, on cells. A general note: In an ELISA, binding on a coated surface is turned into a signal by an enzyme label.

The target in assay [3] is T1, TGFβR2(-1) frameshift variant (deletion …). Description: IFNγ ELISA after 16 h; transduced human CD4+ T cells with BSM cells pulsed with decreasing amounts of peptide; upper bound of the printed range; full-length, on cells.

B1: TCR1414_1 (TCR, V domains shown)
Valpha: KQEVTQIPAALSVPEGENLVLNCSFTDSAIYNLQWFRQDPGKGLTSLLLIQSSQREQTSGRLNASLDKSSGRSTLYIAASQPGDSATYLCAVKSGAGSYQLTFGKGTKLSVIP
Vbeta: NAGVMQNPRHLVRRRGQEARLRCSPMKGHSHVYWYRQLPEEGLKFMVYLQKENIIDESGMPKERFSAEFPKEGPSILRIQQVVRGDSAAYFCASSPFQETQYFGPGTRLLVL
Take B1: the lowest peptide concentration recognized (IFNy ELISA, BSM cells loaded with different concentrations of peptide) in assay [1] came out at 1 nM. For the same molecule, the EC50 of peptide in assay [2] was greater than 1 nM; in assay [3] it was less than 10 nM.

B2: TCR1414_2 (TCR, V domains shown)
Valpha: GIQVEQSPPDLILQEGANSTLRCNFSDSVNNLQWFHQNPWGQLINLFYIPSGTKQNGRLSATTVATERYSLLYISSSQTTDSGVYFCAAPSGNTPLVFGKGTRLSVIA
Vbeta: DVKVTQSSRYLVKRTGEKVFLECVQDMDHENMFWYRQDPGLGLRLIYFSYDVKMKEKGDIPEGYSVSREKKERFSLILESASTNQTSMYLCASRVSGANVLTFGAGSRLTVL
In assay [1], B2 showed a lowest peptide concentration recognized (IFNy ELISA, BSM cells loaded with different concentrations of peptide) of 1 nM. The EC50 of peptide in assay [2] is greater than 1 nM; in assay [3], less than 10 nM.
